Assay results reported in article PMC8280819 (The EMBO Journal, 2021).

Target: His‐SigH (Mycobacterium tuberculosis, UniProt P9WGH8 1-216)
Assay: BLI

Sequence of His‐SigH (P9WGH8 whole entry): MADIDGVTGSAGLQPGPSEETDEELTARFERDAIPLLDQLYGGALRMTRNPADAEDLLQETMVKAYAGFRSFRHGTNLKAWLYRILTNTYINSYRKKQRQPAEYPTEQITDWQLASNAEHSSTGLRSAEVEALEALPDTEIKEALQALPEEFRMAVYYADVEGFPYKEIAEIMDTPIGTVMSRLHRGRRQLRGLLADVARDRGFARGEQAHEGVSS

B1: His‐AosR (Rv1332, actinomycetes oxidative stress regulator) (natural protein)
chain: MPPVCGRRCSRTGEIRGYSGSIVRRWKRVETRDGPRFRSSLAPHEAALLKNLAGAMIGLLDDRDSSSPSDELEEITGIKTGHAQRPGDPTLRRLLPDFYRPDDLDDDDPTAVDGSESFNAALRSLHEPEIIDAKRVAAQQLLDTVPDNGGRLELTESDANAWIAAVNDLRLALGVMLEIGPRGPERLPGNHPLAAHFNVYQWLTVLQEYLVLVLMGSR
B1 was tested, and the “response, fold over reducing conditions” value was 3 fold.
